Experimental data from patent US20200181261A1 (Bayer, published 2020).

T1: Macaca fascicularis (cynomolgus) CEACAM6, full-length, on transfected HeLa cells (Macaca fascicularis, GPI anchor at the C-terminus on the cell surface, not carried by the letters)
T1 construct: also called TPP-4189; HeLa Cynomolgus CEACAM6
T1 chain: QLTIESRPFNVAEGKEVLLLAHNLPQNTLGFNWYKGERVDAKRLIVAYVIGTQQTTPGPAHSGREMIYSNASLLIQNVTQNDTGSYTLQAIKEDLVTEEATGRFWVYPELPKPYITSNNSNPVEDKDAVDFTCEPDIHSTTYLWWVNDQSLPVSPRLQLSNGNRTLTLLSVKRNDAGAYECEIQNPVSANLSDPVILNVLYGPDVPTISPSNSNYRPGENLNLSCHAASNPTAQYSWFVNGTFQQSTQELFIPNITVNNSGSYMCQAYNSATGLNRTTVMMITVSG

T2: human CEACAM1, extracellular (mature form), R&D Systems 2244-CM (human, UniProt P13688 35-428)
T2 construct: used biotinylated in some assays; also called TPP-1437; hC1
T2 sequence: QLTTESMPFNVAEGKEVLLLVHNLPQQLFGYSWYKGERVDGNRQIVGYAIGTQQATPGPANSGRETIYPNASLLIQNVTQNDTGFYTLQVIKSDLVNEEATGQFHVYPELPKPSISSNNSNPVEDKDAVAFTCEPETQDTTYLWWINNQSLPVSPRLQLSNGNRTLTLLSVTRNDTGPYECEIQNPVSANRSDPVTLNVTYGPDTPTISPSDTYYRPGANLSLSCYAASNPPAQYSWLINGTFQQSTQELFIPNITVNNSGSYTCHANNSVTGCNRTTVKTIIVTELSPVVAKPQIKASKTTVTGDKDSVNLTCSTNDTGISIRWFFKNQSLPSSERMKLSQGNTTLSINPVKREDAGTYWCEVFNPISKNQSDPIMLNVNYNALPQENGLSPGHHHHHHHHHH

T3: Macaca fascicularis CEACAM6, extracellular (mature form), obtained by Factor Xa cleavage of TPP-2443 (Macaca fascicularis)
T3 construct: used biotinylated in some assays; also called APP-319; Cynomolgus CEACAM6
T3 chain: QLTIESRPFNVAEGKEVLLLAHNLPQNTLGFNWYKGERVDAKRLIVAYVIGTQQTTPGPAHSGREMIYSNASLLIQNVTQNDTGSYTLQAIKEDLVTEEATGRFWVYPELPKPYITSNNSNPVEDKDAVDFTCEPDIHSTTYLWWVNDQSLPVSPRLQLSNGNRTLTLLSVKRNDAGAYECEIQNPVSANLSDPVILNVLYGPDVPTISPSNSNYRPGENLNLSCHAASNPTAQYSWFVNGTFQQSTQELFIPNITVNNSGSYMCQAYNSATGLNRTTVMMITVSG


Tests used:
[1] = target: T1, Macaca fascicularis (cynomolgus) …; experiment: FACS, transfected HeLa cells
Method: For FACS experiments HeLa wild type cells were cultured in RPMI-1640, 10% FCS, while CEACAM-receptor transfected HeLa cells received in addition 0.5% Gentamycin (stock 10 mg/ml, Fa. PAA) and 200 μg/ml Hygromycin B (stock 50 mg/ml, Invitrogen). Cells were washed 3 times with PBS w/o Ca²⁺/Mg²⁺ and were detached from the culture plate non-enzymatically with EDTA dissociation buffer (Gibco). Cells were washed in cold FACS buffer (PBS w/o Ca²⁺/Mg²⁺ and heat-inactivated 3% FCS) and were counted using a countess machine (Invitrogen). 10⁵ cells per well were plated and incubated with the respective primary antibody (5 μg/ml) for 1 h at 4° C. on a plate shaker. […] After 2 times washing the cells were resuspended in 100 μl FACS buffer and were analysed on a FACS Canto II machine (Beckton Dickinson) or a FACS Array (Beckton Dickinson).
For EC₅₀ analysis, the primary antibodies were used at increasing concentrations in a range from 0.1 nM to 100 nM. Half maximal binding values (EC₅₀) were determined by plotting the median fluorescence intensity signal against the concentration (logarithmic scale). Curve fitting of data was performed using the Graph Pad prism analysis software.

[2] = target: T2, human CEACAM1, extracellular (mature …); experiment: SPR, antibody captured, antigen as analyte
[3] = target: T3, Macaca fascicularis CEACAM6, …; experiment: ELISA, antibody captured, biotinylated antigen titrated
Method: The binding characteristics of these antibodies were also determined by a binding ELISA (monovalent binding, biotinylated CEACAM proteins): A 1:440 dilution of an anti-human IgG (Sigma, 12136) in Coating buffer (Candor) was used to coat black 384-well Maxisorp plates (Nunc) for 1 hour at 37° C. After one wash with PBS/0.05% Tween-20 the plates were blocked with 100% SmartBlock (Candor) for 1 hour at 37° C. After three washes, 2 μg/ml of the relevant antibodies were added to the plate in PBS/0.05% Tween-20/10% SmartBlock. The plates were incubated for 1 hour at room temperature. After three washes dilution series of the relevant biotinylated CEACAM proteins in PBS/0.05% Tween-20/10% SmartBlock were added and the plates were incubated for one hour at room temperature. After three washes 1 μg/ml of Streptavidin-Peroxidase (Sigma, S5512) in PBS/0.05% Tween-20/10% SmartBlock was added and the plates were incubated for 30 minutes at room temperature. After three washes, the plates were developed with Amplex Red (Life Technologies) and fluorescence was read at an emission wavelength of 590 nm. GraphPad Prism 6.0 software was used to calculate EC₅₀ values using four-parameter non-linear curve fit.

EC50 [1]	binding result [2]	EC50 [3]	FACS median fluorescence [1]	Binder
1 nM	no binding (tested: 200 nM)	0.07 nM		TPP-3714 (antibody, human IgG2, kappa, humanized from TPP-2971, human IgG2; also called TPP-2971HU2-hIgG2Kappa) heavy: QVTLRESGPALVKPTQTLTLTCTFSGFSLSTYGIGVGWIRQPPGKALEWLAHIWWNDNKYYSTSLKTRLTISKDTSKNQVVLTMTNMDPVDTATYYCARISLPYFDYWGQGTLVTVSSASTKGPSVFPLAPCSRSTSESTAALGCLVKDYFPEPVTVSWNSGALTSGVHTFPAVLQSSGLYSLSSVVTVPSSNFGTQTYTCNVDHKPSNTKVDKTVERKCCVECPPCPAPPVAGPSVFLFPPKPKDTLMISRTPEVTCVVVDVSHEDPEVQFNWYVDGVEVHNAKTKPREEQFNSTFRVVSVLTVVHQDWLNGKEYKCKVSNKGLPAPIEKTISKTKGQPREPQVYTLPPSREEMTKNQVSLTCLVKGFYPSDIAVEWESNGQPENNYKTTPPMLDSDGSFFLYSKLTVDKSRWQQGNVFSCSVMHEALHNHYTQKSLSLSPG light: DIQLTQSPSFLSASVGDRVTITCKASQNVGTAVAWYQQKPGKAPKLLIYSASNRYTGVPSRFSGSGSGTEFTLTISSLQPEDFATYYCQQYSSYPLTFGGGTKVEIKRTVAAPSVFIFPPSDEQLKSGTASVVCLLNNFYPREAKVQWKVDNALQSGNSQESVTEQDSKDSTYSLSSTLTLSKADYEKHKVYACEVTHQGLSSPVTKSFNRGEC
1 nM	no binding (tested: 200 nM)			TPP-3821 (antibody, human IgG2, kappa, V domains shown, humanized from TPP-3187, human IgG2; also called 3187HU2-hIgG2Kappa) VH: QVTLRESGPALVKPTQTLTLTCTFSGFSLSTYGIGVGWIRQPPGKALEWLAHIWWNDNKYYSTSLKTRLTISKDTSKNQVVLTMTNMDPVDTATYYCARISLPYFDYWGQGTLVTVSS VL: DIQLTQSPSFLSASVGDRVTITCKASQNVGTAVAWYQQKPGKAPKLLIYSASNRYTGVPSRFSGSGSGTEFTLTISSLQPEDFATYYCQQYNNYPLTFGGGTKVEIKR
1 nM	no binding (tested: 200 nM)			TPP-3820 (antibody, human IgG2, kappa, V domains shown, humanized from TPP-3187, human IgG2; also called 3187HU1-hIgG2Kappa) VH: QVTLRESGPALVKPTQTLTLTCTFSGFSLTTYGIGVGWIRQPPGKGLEWLAHIWWNDNKYYSTSLKTRLTISKDTSKNQVVLTMTNMDPVDTATYYCARISLPYFDYWGQGTLVTVSS VL: DIQLTQSPSFLSASVGDRVTITCKASQNVGTAVAWYQQKPGKAPKLLIYSASNRYTGVPSRFSGSGSGTEFTLTISSLQPEDFATYYCQQYNNYPLTFGGGTKVEIKR
1.5 nM	no binding (tested: 200 nM)	0.07 nM		TPP-3310 (antibody, human IgG2, kappa, humanized from TPP-2971, human IgG2; also called TPP-2971HU1-hIgG2Kappa) heavy: QVTLRESGPALVKPTQTLTLTCTFSGFSLSTYGIGVGWIRQPPGKALEWLAHIWWNDNKYYSTSLKTRLTISKDTSKNQVVLTMTNMDPVDTATYYCARISLPYFDYWGQGTTLTVSSASTKGPSVFPLAPCSRSTSESTAALGCLVKDYFPEPVTVSWNSGALTSGVHTFPAVLQSSGLYSLSSVVTVPSSNFGTQTYTCNVDHKPSNTKVDKTVERKCCVECPPCPAPPVAGPSVFLFPPKPKDTLMISRTPEVTCVVVDVSHEDPEVQFNWYVDGVEVHNAKTKPREEQFNSTFRVVSVLTVVHQDWLNGKEYKCKVSNKGLPAPIEKTISKTKGQPREPQVYTLPPSREEMTKNQVSLTCLVKGFYPSDIAVEWESNGQPENNYKTTPPMLDSDGSFFLYSKLTVDKSRWQQGNVFSCSVMHEALHNHYTQKSLSLSPG light: DIQLTQSPSFLSASVGDRVTITCKASQNVGTAVAWYQQKPGKAPKLLIYSASNRYTGVPSRFSGSGSGTEFTLTISSLQPEDFATYYCQQYSSYPLTFGGGTKVEIKRTVAAPSVFIFPPSDEQLKSGTASVVCLLNNFYPREAKVQWKVDNALQSGNSQESVTEQDSKDSTYSLSSTLTLSKADYEKHKVYACEVTHQGLSSPVTKSFNRGEC
0.5 nM	no binding (tested: 200 nM)		100 to 1000 medianfluorescence	TPP-2971 (antibody, mouse IgG1, V domains shown, murine hybridoma antibody, mouse IgG1; also called 792.15H12C9) VH: QVTLKESGPGILQPSQTLSLTCSFSGFSLSTYGIGVGWIRQPSGKDLEWLAHIWWNDNKYYNTALKSRLTISKDTSNNQVFLKIASVDTADTATYYCARISLPYFDYWGQGTTLTVSS VL: DIVMTQSQKFMSTSVGDRVSITCKASQNVGTAVAWYQQKPGQSPKLLIYSASNRYTGVPDRFTGSGSGTDFTLTISNMQSEDLADYFCQQYSSYPLTFGAGTKLELK
0.8 nM			100 to 1000 medianfluorescence	TPP-3323 (antibody, human IgG2, kappa, V domains shown, human IgG2 chimera; also called TPP-3187X1-hIgG2; hIgG2 chimera of TPP-3187) VH: QVTLKESGPGILQPSQTLSLTCSFSGFSLTTYGIGVGWIRQPSGKGLEWLAHIWWNDNKYYNTALKSRLTISKDTSNNQVFLKIASVDTADTATYYCARISLPYFDYWGQGTTLTVSS VL: DIVMTQSQKFMSTSVGDRVSITCKASQNVGTAVAWYQQKPGQSPKLLIYSASNRYTGVPDRFTGSGSGTDFTLTISNMQSEDLADYFCQQYNNYPLTFGAGTKLELKR
4 nM			100 to 1000 medianfluorescence	TPP-3187 (antibody, mouse IgG1, V domains shown, murine hybridoma antibody, mouse IgG1; also called 792.15C4F4) VH: QVTLKESGPGILQPSQTLSLTCSFSGFSLTTYGIGVGWIRQPSGKGLEWLAHIWWNDNKYYNTALKSRLTISKDTSNNQVFLKIASVDTADTATYYCARISLPYFDYWGQGTTLTVSS VL: DIVMTQSQKFMSTSVGDRVSITCKASQNVGTAVAWYQQKPGQSPKLLIYSASNRYTGVPDRFTGSGSGTDFTLTISNMQSEDLADYFCQQYNNYPLTFGAGTKLELK
0.6 nM			100 to 1000 medianfluorescence	TPP-3308 (antibody, human IgG2, kappa, V domains shown, human IgG2 chimera; also called TPP-2971X1-hIgG2Kappa; hIgG2 chimera of TPP-2971) VH: QVTLKESGPGILQPSQTLSLTCSFSGFSLSTYGIGVGWIRQPSGKDLEWLAHIWWNDNKYYNTALKSRLTISKDTSNNQVFLKIASVDTADTATYYCARISLPYFDYWGQGTTLTVSS VL: DIVMTQSQKFMSTSVGDRVSITCKASQNVGTAVAWYQQKPGQSPKLLIYSASNRYTGVPDRFTGSGSGTDFTLTISNMQSEDLADYFCQQYSSYPLTFGAGTKLELKR
		0.12 nM		TPP-3705 (antibody, human IgG2, kappa, V domains shown, also called 090E-M007-A09-Mat1-hIgG2-hIgG2Kappa) VH: EVQLVESGGGLVQPGGSLRLSCAASGFTFSLYQMHWVRQAPGKGLEWVSWISFSGGNTGYADSVKGRFTISRDNSKNTLYLQMNSLRAEDTAVYYCARATGYSSPWYLDPWGQGTLVTVSS VL: DIQMTQSPSSLSASVGDRVTITCQASHEIDNYLNWYQQKPGKAPKLLIYDAYWLKTGVPSRFSGSGSGTDFTLTISSLQPEDIATYYCQGYDDLSVTFGGGTKVDIKR
4 nM		0.11 nM		TPP-3707 (antibody, human IgG2, kappa, V domains shown, also called 090E-M007-A09-Mat2-hIgG2-hIgG2Kappa) VH: EVQLVESGGGLVQPGGSLRLSCAASGFTFSLYQMHWVRQAPGKGLEWVSWISFSGGNTGYADSVKGRFTISRDNSKNTLYLQMNSLRAEDTAVYYCARATGYSSPWYLDPWGQGTLVTVSS VL: DIQMTQSPSSLSASVGDRVTITCQASHEIDNYLNWYQQKPGKAPKLLIYDAYWSKTGVPSRFSGSGSGTDFTLTISSLQPEDIATYYCQGYDDLSVTFGGGTKVDIKR
